In patent publication US20030206865A1, “Conjugates of macrocyclic metal complexes with biomolecules and their use for the production of agents for NMR diagnosis and radiodiagnosis as well as radiotherapy” (Schering AG, priority 2001, published 2003):

Assay: Relaxivity measurement of BSA conjugates in aqueous solution and in plasma
Assay type: physicochemical
Settings: relaxivity per mol of gadolinium, calculated from the measured values, +37° C., 20 MHz
Procedure: In this example, the relaxivities of the conjugates from Examples 30-38 were compared with the relaxivities of two comparison substances. As comparison substances, Gd-DTPA (1) with the formula: [drawing 16]
and Gd-GlyMeDOTA (2) with the formula: [drawing 17]
which were reacted in each case with bovine serum albumin (BSA), were used.
The measurements were made in each case in aqueous solution and in plasma at +37° C. and a frequency of 20 MHz. The results are summarized in Table 2 below, whereby the indicated relaxivities per mol of gadolinium were calculated from the measured values: […]

Gd-GlyMeDOTA [Vergleichssubstanz 2, reference compound]
R1 (H2O) (aqueous solution): 18.3 L/mmol/s | R1 (Plasma) (plasma): 20.8 L/mmol/s
